Tests used:
Test in all cases: EMSA; EMSA: 5 ug GST fusion or 10 ng IVT protein, 25 C 30 min; 5% native PAGE in 0.5x TBE at 4 C; binding buffer, salt and pH not given
GST-JDP2 = target: T1, GST-JDP2 (mouse, UniProt P97875 1-163); conditions: protein: recombinant; tags: GST; chain copies: 2; label: 32P 5' end (T4 kinase) as probe; blunt
T1 sequence: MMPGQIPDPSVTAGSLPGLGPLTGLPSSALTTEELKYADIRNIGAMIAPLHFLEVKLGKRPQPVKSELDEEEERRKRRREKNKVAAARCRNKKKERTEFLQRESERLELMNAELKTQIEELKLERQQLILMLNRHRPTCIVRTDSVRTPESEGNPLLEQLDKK

IVT-MafK = IVT-MafK (rat, UniProt Q8K4B3 1-156); conditions: protein: ivt; chain copies: 2; label: 32P 5' end (T4 kinase) as probe; blunt
Chain of IVT-MafK (Q8K4B3 entry or part of it): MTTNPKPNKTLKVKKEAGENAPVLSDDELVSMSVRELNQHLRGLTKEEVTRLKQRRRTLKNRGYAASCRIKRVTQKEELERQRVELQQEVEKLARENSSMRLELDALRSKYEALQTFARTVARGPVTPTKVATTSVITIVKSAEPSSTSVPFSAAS

IVT-JDP2 = target: T2, IVT-JDP2 (mouse, UniProt P97875 1-163); conditions: protein: ivt; chain copies: 2; label: 32P 5' end (T4 kinase) as probe; blunt
T2 sequence: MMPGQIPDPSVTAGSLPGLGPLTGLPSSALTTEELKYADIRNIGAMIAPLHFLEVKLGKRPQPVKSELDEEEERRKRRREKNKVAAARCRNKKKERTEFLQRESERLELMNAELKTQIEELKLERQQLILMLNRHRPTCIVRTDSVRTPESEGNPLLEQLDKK

Measured: binding result

B1: human NQO1-ARE WT (dsDNA)
DNA 1: CAGTCACAGTGACTCAGCAGAATCT
DNA 2: AGATTCTGCTGAGTCACTGTGACTG
binds: GST-JDP2 | IVT-MafK | IVT-JDP2

From publication PMC3847324, “Jun dimerization protein 2 is a critical component of the Nrf2/MafK complex regulating the response to ROS homeostasis”
